In test [1] the target is T1, human α11β1 expressed on the surface of CHO-K1 cells (human, UniProt Q9UKX5 23-1188). The test can be described thus: FACS titration on Human CHO-α11 cells. How it is done: (§1) 200,000 cells (wild-type CHO-K1 cells or CHO-K1 cells expressing human α11) were incubated with each antibody at desired concentrations in FACS buffer for 30 min at 4° C. Then, the cells were washed with FACS buffer and incubated with secondary antibody at 1:100 dilution for 30 minutes at 4° C. Cells were then washed and fixed with 1% PFA in PBS for 20 minutes at room temperature; washed again and read on a cytometer in FACS buffer.
T1 sequence (Q9UKX5 23-1188): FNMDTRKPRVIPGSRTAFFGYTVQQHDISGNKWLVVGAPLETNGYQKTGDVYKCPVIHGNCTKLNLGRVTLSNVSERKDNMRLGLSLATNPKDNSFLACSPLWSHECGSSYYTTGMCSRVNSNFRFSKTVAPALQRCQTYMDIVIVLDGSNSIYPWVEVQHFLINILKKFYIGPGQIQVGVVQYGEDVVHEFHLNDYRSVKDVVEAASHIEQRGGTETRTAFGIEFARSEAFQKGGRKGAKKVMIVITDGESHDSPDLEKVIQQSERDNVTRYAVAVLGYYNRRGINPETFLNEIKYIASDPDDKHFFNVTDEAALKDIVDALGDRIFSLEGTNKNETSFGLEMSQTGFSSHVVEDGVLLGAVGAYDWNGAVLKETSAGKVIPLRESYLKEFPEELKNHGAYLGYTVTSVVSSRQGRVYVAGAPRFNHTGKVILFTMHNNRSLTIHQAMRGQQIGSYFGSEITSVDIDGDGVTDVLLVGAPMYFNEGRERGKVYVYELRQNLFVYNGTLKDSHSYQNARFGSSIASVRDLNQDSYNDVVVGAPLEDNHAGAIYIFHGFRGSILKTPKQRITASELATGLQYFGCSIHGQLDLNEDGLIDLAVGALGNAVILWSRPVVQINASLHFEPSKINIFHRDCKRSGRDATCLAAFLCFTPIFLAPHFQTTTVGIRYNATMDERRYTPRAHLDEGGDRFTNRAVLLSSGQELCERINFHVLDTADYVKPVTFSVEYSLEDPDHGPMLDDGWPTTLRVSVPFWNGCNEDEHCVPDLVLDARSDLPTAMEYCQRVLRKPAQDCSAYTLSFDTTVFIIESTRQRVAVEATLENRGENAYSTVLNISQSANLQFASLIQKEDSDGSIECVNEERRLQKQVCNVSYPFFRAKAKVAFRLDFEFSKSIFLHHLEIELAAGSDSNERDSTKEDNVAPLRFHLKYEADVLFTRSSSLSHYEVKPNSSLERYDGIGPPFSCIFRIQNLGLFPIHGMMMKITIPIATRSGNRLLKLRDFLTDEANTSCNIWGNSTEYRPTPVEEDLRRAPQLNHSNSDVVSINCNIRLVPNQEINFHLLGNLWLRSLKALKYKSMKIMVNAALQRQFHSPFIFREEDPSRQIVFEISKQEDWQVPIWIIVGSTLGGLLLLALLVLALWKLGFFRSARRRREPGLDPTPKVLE

Test [2] addresses Mouse CHO-α11 (mouse, UniProt P61622). The test can be described thus: FACS titration on Mouse CHO-α11 cells.
Test [3] concerns the target T2, α11β1 on human myofibroblasts (MF) (human, UniProt Q9UKX5 23-1188; P05556 21-798).
T2 construct: whole, on cells
The test can be described thus: FACS titration on human myofibroblasts. How it is done: Human Pulmonary Fibroblasts (ScienCell) were cultured in complete Fibroblast Growth Medium (ScienCell) until 80% confluent in T-150 flasks. Cells were washed and harvested using Accutase. Cells were seeded into T-150 flasks at 7,500 cells/cm² in complete FGF and cultured for 72 hours. Cells were then washed and starved in serum reduced medium for 24 hours. After starvation, cells were treated with TGFβ-1 (R&D Systems) for 72 hours. Cells were harvested using Accutase and seeded in 96-well conical bottom plates. Cells were blocked with Heat Inactived Fetal Bovine Serum (Gibco) for 30 minutes at 4° C. Cells were then incubated with anti-α11 antibodies at the doses described in each figure for 30 minutes at 4° C. A human anti-α11 antibody (Creative BioLabs) was included as a positive control as well as the appropriate IgG isotype negative controls. Cells were washed twice and incubated with PE conjugated secondary antibodies specific to the IgG class of the anti-α11 antibodies being tested for 30 minutes at 4° C. Cells were washed twice and fixed in 1% PFA for 30 minutes. Cells were acquired on a FACS Verse […]. Data were analyzed by gating on single cells and determining the geometric Mean Fluorescence Intensity (gMFI) in the PE channel for each sample.

For test [4], the target named is T3, in-house generated I domain of α11β1 (human, UniProt Q9UKX5 159-349, limits assumed).
T3 construct: domain: I domain; also called human α11β1 I domain; α11β1 I Domain
T3 sequence (looked up): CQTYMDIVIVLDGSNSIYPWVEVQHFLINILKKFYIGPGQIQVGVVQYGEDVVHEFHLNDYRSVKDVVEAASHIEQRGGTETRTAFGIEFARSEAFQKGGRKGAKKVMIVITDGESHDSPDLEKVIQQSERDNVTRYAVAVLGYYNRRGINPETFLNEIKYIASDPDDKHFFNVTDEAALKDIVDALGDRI
The test can be described thus: SPR, single-cycle injections of 33, 100 and 300 nM over the a11b1 I Domain.

In test [5] the target is T4, recombinant human α11β1 (human, UniProt Q9UKX5 23-1141; P05556 21-728).
T4 construct: Coated in ELISA; ELISA and SPR material treated as one molecule; also called HIS-tagged human α11β1; integrin alpha 11 beta 1
T4 sequence (Q9UKX5 23-1141 limits assumed, chain 1 of 2): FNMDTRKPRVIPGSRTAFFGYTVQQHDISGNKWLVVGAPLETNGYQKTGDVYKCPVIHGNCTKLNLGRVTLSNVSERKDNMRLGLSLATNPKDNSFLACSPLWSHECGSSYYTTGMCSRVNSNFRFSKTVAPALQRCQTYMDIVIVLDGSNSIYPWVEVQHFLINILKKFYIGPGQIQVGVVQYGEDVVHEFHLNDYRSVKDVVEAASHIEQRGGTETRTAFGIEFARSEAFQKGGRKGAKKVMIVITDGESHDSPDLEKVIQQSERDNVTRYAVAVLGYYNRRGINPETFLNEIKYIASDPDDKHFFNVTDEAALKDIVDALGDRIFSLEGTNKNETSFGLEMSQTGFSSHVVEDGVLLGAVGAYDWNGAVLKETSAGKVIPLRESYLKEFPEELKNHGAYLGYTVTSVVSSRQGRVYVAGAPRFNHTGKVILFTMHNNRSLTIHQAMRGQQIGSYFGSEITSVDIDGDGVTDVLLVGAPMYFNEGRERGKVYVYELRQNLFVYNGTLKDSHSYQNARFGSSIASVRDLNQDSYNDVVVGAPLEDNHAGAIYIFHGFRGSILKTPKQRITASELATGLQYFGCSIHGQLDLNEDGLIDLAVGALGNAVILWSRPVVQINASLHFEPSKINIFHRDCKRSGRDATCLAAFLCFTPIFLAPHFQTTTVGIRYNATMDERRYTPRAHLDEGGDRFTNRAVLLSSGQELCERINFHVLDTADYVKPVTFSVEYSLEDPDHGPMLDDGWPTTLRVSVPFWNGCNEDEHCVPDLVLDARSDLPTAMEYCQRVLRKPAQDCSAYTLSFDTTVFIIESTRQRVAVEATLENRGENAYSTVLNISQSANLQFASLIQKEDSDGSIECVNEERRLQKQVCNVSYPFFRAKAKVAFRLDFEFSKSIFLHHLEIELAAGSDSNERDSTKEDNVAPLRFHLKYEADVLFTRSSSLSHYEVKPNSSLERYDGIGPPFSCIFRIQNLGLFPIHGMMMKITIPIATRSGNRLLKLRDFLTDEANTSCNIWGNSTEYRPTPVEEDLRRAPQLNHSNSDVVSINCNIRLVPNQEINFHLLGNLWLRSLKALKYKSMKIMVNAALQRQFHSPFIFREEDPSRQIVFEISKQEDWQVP
T4 sequence (P05556 21-728 limits assumed, chain 2 of 2): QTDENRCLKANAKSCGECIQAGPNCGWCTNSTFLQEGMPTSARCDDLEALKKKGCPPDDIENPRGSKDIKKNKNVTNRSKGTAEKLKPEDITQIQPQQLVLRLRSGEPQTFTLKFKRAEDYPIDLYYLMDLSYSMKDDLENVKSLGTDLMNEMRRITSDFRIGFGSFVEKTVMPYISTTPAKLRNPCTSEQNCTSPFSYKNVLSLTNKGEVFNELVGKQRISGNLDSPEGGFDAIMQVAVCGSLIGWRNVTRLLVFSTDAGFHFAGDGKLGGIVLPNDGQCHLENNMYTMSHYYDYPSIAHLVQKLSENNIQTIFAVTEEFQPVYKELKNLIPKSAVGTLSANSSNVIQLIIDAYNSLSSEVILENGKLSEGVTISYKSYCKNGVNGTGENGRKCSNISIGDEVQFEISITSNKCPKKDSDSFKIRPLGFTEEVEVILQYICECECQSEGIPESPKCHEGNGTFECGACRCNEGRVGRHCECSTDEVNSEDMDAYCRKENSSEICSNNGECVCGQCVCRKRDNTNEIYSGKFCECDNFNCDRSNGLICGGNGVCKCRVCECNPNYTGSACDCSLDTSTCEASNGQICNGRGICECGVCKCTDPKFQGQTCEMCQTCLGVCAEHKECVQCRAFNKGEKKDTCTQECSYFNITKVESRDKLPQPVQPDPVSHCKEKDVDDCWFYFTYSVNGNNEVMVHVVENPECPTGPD
The test can be described thus: SPR, HIS-tagged human α11β1 captured by anti-HIS, antibody as analyte, single-cycle kinetics. How it is done: (§2) The affinity of antibodies for human α11β1 was measured by surface plasmon resonance assay (SPR). Affinity was measured at pH 7.6 and 25° C. with a Biacore T200 instrument. Anti-HIS antibody was immobilized on the SPR sensor surface using EDC/NHS covalent attachment. HIS-tagged human α11β1 was captured on the sensor surface and a single-cycle kinetics assay was used. Increasing concentrations of test antibody were injected in series over the sensor-bound α11β1. Dissociation was monitored for 1000 seconds. A sensor surface with only anti-HIS antibody and a series of blank injections were used to double-reference subtract the data. A 1:1 Langmuir model was fit to the data to estimate the kinetic association and dissociation constants. The affinity (equilibrium dissociation constant) of the interaction was calculated by dividing the kinetic dissociation constant by the kinetic association constant. Between injection cycles α11β1 and bound antibody were removed with an injection of 10 mM glycine at pH 1.5.
The binding affinity of antibodies for the α11β1 Headpiece and α11β1 I Domain as measured by SPR is shown in FIG. 10A and FIG. 10B, respectively.
(In general: Surface plasmon resonance follows binding to a sensor surface in real time, without labels.)

Test [6] has as its target T4, recombinant human α11β1. The test can be described thus: SPR (Biacore T200), HIS-tagged human α11β1 captured on anti-HIS, single-cycle kinetics, 1:1 Langmuir fit. Here is the method:
as §2

The target in test [7] is T3, in-house generated I domain of α11β1. The test can be described thus: ELISA on the human α11β1 I domain.
For test [8], the target named is T1, human α11β1 expressed on the surface of …. The test can be described thus: FACS on CHO-K1 hu α11β1 cells, estimated EC50. How it is done: as §1
Binding EC₅₀ was estimated using data from Fluorescence-activated cell sorting (FACS) performed with CHO-K1 hu α11β1 cells. Four out of six mAbs tested had EC₅₀ results in the low nanomolar range (8-P20, 8-G15, 8-J17, 8-l14), while the remaining two mAbs were not as potent (9-G05 and 9-E16; both I domain binders).

The target of test [9] is T4, recombinant human α11β1. The test can be described thus: ELISA, plate coated with recombinant human α11β1. How it is done:
(§3) 0.25 μg/mL of target antigen (recombinant human or mouse α11β1) was plated in a 96-well plate over night at 4° C. Plates were washed (PBS with 0.1% Tween-20), blocked (PBS with 2% BSA and 0.05% Tween-20) for 1 hour at room temperature and incubated with a range of antibody concentrations for 1 hour at room temperature. Subsequently, plates were washed and incubated with biotinylated anti-rabbit/mouse/human IgG in a 1:1000 dilution buffer and incubated for 1 hour at room temperature. After washing the plates, Streptavidin HRP was added at 1:200 in dilution buffer and incubated for 1 hour at room temperature. Ultra TMB ELISA substrate solution was added and the plates incubated for 5 minutes on a plate shaker. The reaction was stopped by adding stop solution to each well and plates were read at 450 nm.
(An ELISA detects its analyte on a solid surface through an enzyme-linked reagent.)

For test [10], the target named is T5, recombinant mouse α11β1 (mouse, UniProt P61622 23-1141; P09055 21-728, limits assumed).
T5 construct: also called murine α11β1
T5 sequence (P61622 23-1141 limits assumed, chain 1 of 2): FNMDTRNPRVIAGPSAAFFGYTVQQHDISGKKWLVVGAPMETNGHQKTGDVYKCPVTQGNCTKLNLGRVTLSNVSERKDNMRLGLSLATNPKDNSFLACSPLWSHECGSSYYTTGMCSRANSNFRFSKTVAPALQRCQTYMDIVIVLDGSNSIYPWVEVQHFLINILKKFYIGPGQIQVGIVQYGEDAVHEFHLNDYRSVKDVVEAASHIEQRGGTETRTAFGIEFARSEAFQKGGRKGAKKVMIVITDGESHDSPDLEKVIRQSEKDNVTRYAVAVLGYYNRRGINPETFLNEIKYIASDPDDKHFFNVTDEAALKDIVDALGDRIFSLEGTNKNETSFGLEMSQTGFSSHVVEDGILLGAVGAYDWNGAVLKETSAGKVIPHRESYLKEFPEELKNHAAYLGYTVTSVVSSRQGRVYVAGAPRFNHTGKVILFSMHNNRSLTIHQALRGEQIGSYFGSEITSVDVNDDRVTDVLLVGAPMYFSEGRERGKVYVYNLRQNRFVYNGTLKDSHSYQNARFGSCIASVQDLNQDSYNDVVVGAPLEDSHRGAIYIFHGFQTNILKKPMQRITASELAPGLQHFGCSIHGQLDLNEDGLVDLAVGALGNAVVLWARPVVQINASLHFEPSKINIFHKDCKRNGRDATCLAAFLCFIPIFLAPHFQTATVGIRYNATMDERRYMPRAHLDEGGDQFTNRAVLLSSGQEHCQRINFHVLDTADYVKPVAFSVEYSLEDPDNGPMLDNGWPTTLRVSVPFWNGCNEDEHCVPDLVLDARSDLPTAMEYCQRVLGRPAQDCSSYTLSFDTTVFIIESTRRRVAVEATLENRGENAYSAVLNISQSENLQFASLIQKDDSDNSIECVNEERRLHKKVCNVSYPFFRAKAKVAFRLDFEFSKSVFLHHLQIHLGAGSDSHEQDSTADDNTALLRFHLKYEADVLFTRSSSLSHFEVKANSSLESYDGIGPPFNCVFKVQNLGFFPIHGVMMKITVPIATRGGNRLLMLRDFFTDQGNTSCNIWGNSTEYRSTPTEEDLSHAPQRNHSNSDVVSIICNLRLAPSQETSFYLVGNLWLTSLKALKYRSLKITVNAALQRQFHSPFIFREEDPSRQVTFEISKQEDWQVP
T5 sequence (P09055 21-728 limits assumed, chain 2 of 2): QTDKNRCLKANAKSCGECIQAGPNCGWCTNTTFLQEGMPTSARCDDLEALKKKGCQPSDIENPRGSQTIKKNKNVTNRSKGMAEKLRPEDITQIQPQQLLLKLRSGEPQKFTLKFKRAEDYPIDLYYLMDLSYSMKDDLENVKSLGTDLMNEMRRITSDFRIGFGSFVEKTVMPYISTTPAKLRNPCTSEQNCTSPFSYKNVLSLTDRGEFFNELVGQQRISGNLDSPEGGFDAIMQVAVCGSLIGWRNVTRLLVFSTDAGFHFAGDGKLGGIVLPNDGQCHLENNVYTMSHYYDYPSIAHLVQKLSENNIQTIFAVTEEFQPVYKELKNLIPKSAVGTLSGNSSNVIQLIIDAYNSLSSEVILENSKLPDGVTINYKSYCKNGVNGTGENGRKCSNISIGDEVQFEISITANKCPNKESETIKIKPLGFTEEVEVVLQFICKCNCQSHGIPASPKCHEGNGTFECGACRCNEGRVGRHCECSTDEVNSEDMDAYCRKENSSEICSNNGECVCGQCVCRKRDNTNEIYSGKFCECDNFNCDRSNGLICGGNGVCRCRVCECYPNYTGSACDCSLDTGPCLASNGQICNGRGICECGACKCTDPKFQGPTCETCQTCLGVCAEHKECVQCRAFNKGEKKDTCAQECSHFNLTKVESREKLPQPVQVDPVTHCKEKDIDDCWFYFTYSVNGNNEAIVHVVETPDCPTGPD
The test can be described thus: ELISA, plate coated with recombinant mouse α11β1. Here is the method:
as §3

For test [11], the target named is T3, in-house generated I domain of α11β1. The test can be described thus: ELISA on the human α11β1 I domain. This is another data set of the same source.

Residue numbers refer to the chain shown, from its start. “And” between values parts separate entries of the source, which are not always exact repeats. Equal entries are not always repeated.

B1: 1994_01_C07 (antibody, V domains shown)
VH: QVQLVQSGAEVKKPGASVKVSCKASGYTFTSYGISWVRQAPGQGLEWMGWISAYNGNTNYAQKLQGRVTMTTDTSTSTAYMELRSLRSDDTAAYYCARVTGITGTTIDPWGQGTMVTVSS
VL: DIQMTQSPSSLSASVGDRVTITCRASQSISSYLNWYQQKPGKAPKLLIYDASSLESGVPSRFSGSGSGTEFTLTISSLQPDDFAVYYCQQYNNWPQTFGQGTKVEIK
notes: fully human, from phage display, scFv converted to IgG; kappa
Turning to B1, the EC50 in test [1] was 7.75 nM; in test [2], 29 nM; in [3], 0.53 µg/mL and 3.5 nM. Moreover, the binding result in test [4] is listed as “no binding (tested: 300 nM)”. Further, the Kd in test [5] was found to be 0.77 nM. Also, the koff in [6] turned out to be 0.000289 s⁻¹. Also, the on-rate constant (kon) in test [6] is 374000 M⁻¹ s⁻¹.

B2: 8-P20 (antibody, V domains shown)
VH: KVMLVESGGALVKPGGSLKLSCVASGFTFSNYAMSWVRQTPEKRLEWVATISSGGYYTYYPDSVKGRFTISRDNARNTLFLQMSSLRSEDTAMFYCAREDDYGRYSYTMDYWGQGTSVTVSS
VL: DVVMTQTPLSLPVSLGDQVSISCRCSQSLVHSNGNTYLHWYLQKPGQSPQLLIYKISNRFSGVPDRFSGSGSGTDFTLKISRVEAEDLGVYFCSQSTHVPYTFGGGTELEIK
notes: mouse hybridoma IgG
As to B2, the binding result in [7] and in [10] was “no binding (tested: 1 µg/mL)” throughout. Moreover, the EC50 in test [8] was 0.12 µg/mL and 0.8 nM. In addition, the “EC50 (read off the curve)” value in test [9] is roughly 0.03 ng/mL.

B3: 8-J17 (antibody, V domains shown)
VH: QVQLQQSGAELAKPGASVKMSCKASGYTFTNYWMHWVKQRPGQGLEWIGYINPNNGYTEYNQRFKDKATLTADRSSTTAYMQLSSLTSEDSAVYYCARSDIITTDYWGQGTTLTVSS
VL: B2 VL with V19A, C25S, H31Y, Q50K, I56V, Y101W, E108K
notes: mouse hybridoma IgG
For the molecule B3, the binding result in test [7] and in [10] was “no binding (tested: 1 µg/mL)” each time. In test [8], the EC50 was 0.33 µg/mL and 2.2 nM. The “EC50 (read off the curve)” value in test [9] was roughly 0.1 ng/mL.

B4: 40G10H11 (antibody, V domains shown)
VH: AVQLVESGGGLVQPGRSLKLSCAASRITFTDYYMAWVRQAPTKGLEWVATISSDGGDTFYRDSVKGRFTISRDNAKSTLYLQMVSLRSEDTATYYCSTDRGAQFGYWGQGTLVTVSS
VL: DIQMTQSPSFLSASVGDRVSINCKASQNVHENLNWYQQKLGEAPKRLIYNTNNLQTGIPSRFSGSGSGADYTLTISSLQPEDFATYFCLQHNAFPYTFGPGTKLELK
notes: rat hybridoma mAb
Turning to B4, the binding result in test [11] is given as “no binding (tested: 2 µg/ml)”.

B5: 8-I14 (antibody, V domains shown)
VH: EVQLQQSGPELVKPGASVKKSCKASGYTFTDYYMHWVKQKPGQGLEWIGKIYPGSGNTHYNEKFKGKATLTADKSSSTAYMQLSSLTSEDSAVYFCATNYYGYRAMNYWGQGSSVTVSS
VL: DIHLTQSPSSLSASLGERISLTCRASQDIYISLNWFQQKPDGTIKLLIYGTSSLDSGVPKRFSGSRSGSDYSLTISSLESEDFADYYCLQYASSPYTFGGGTKLEIK
notes: mouse hybridoma IgG; also called 8-l14; 8114
Regarding B5, the binding result in test [7] is reported as “no binding (tested: 1 µg/mL)”. Further, in [8], the EC50 is 1.22 µg/mL and 8.1 nM. In addition, the “EC50 (read off the curve)” value in [9] is roughly 0.2 ng/mL; in [10], roughly 6 ng/mL.

B6: 8-G15 (antibody, V domains shown)
VH: EVQLQQSGPELVKPGASVRISCKASGYTFTDYYIHWVKQKPGQGLECIGEIYPGTDNTYYSKKFRGKATLTADKSSDTAYMQLSSLTSEDSAVYFCARGDYYRGYFDVWGAGTTVTVSS
VL: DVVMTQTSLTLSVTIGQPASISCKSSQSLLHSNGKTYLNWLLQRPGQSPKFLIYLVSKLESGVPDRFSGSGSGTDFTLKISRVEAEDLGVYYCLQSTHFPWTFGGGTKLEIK
notes: mouse hybridoma IgG
As for B6, the binding result in test [7] and in test [10] was “no binding (tested: 1 µg/mL)” in each case. Also, the EC50 in test [8] is 0.22 µg/mL and 1.5 nM. The “EC50 (read off the curve)” value in test [9] is roughly 0.03 ng/mL.

B7: 9-G05 (antibody, V domains shown)
VH: EVQLQQSGPELVKPGASVKIPCKASGYTFPDYNMDWVKQSHGKSLEWIGYINPDNGGTIYNQKFKGKATLTVDKSSSTAYMELRSLTSEDTAVYYCARLDSSGYGYYAMDYWGQGTSVTVSS
VL: DIVLTQSPASLAVSLGQRATISCRASESVDNYGISFMHWYQQKPGQPPKLLIYRASNLDSEIPARFSGSGSRTDFTLTIDPVETDDVATYYCQQSYKDPRTFGGGTKLEIK
notes: mouse hybridoma IgG
On to B7, for which the “EC50 (read off the curve)” value in [7] was roughly 0.3 ng/mL; in [9], roughly 10 ng/mL; in test [10], roughly 30 ng/mL. In addition, the EC50 was 21 µg/mL and 140 nM in test [8]; 187 nM in test [1]. In [5], the Kd was 2.85 nM. In addition, the koff in [6] was found to be 4.99e-05 s⁻¹. The kon in [6] was 17500 M⁻¹ s⁻¹.

B8: 9-E16 (antibody, V domains shown)
VH: EVQLQQSGPELVKPGASVKISCKASGYTFTDYYMHWVKQKPGQGLEWIGEIYPGSGNPYYNEKFKGKATLTADKSSSSAYMQLSSLTSEDSAVYFCARTSYGRVGTGFAYWGQGTLVTVSA
VL: NFVMTQTPLSLPVSLGDQASISCRSSQSLLHSNGNTYLHWYLQKPGQSPKLLIYKVSNRFSGVPDRFSGSGSGTDFTLKINRVETEDLGIYFCSQSSHVPTFGAGTKLELK
notes: mouse hybridoma IgG
As to B8, the EC50 in [8] is 42.8 µg/mL and 285 nM. In addition, the “EC50 (read off the curve)” value in test [9] is roughly 1 ng/mL; in test [10], roughly 6 ng/mL.

As usually defined, the EC50 is the concentration giving half of the maximal effect. As usually defined, the Kd is a measure of binding affinity in units of concentration. A word on the koff: it is the first-order rate constant of dissociation. One may read the kon as the second-order rate constant of association. What is called EC50 (read off the curve) is the concentration giving half of the maximal effect.
